Patent publication US20060134801A1, “Methods and compositions involving MDA-7” (Board of Regents, The University of Texas System, priority 2003, published 2006)

Experiments:
A549 tumor xenografts = experiment: A549 xenograft tumors with 293-mda-7 cells (mixing and distant implant); format: in vivo, nude mice; conditions: 3 days postimplantation of 293-mda-7 cells
Protocol: […] 293 cells and 293-mda-7 cells were first tested for their ability to form tumors. […] No tumors formed at this cell concentration, so subsequent experiments were performed using this cell number. For in vivo mixing experiments, human lung tumor cells (A549) grown to 90% confluency were trypsinized, washed, and resuspended in sterile phosphate-buffered saline at a concentration of 5×10^6/ml. The tumor-cell suspension was mixed with an equal number (5×10^6/ml) of parental 293 cells or with 293-mda-7 cells, gently vortexed, and injected subcutaneously in nude mice (10^6 cells/animal) as described above. Each group comprised of eight animals, and the experiments were done twice. Tumor growth was monitored and measured as described previously (Saeki et al., 2002). At the end of the experiment, animals were euthanized by CO2 inhalation, and tumors were harvested for histopathological analysis, western blot analysis, and for CD31 and TUNEL staining.
To evaluate the systemic effect of sMDA-7 on tumor growth, subcutaneous tumors were established by injecting A549 tumor cells (5×10^6 cells) into the lower right flank of nude mice. […] The effect of sMDA-7 on tumor growth was monitored as described above. […]
Tumor tissues were stained for CD31 and TUNEL as previously described (Saeki et al., 2002). […] Tissue sections were analyzed and quantitated, and the results interpreted in a blind fashion.

A549 and H1299 = experiment: Effect of secreted MDA-7 protein on lung cancer cells; format: cell-based, human
Protocol: The number of apoptotic cells was measured by propidium iodide staining and FACS analysis. Cells were harvested, pelleted by centrifugation and resuspended in phosphate-buffered saline containing 50 μg/ml propidium iodide, 0.1% Triton X-100, and 0.1% sodium citrate. Samples were stored at 4° C. for 1-3 hours and vortexed prior to FACS analysis (Becton-Dickenson FACScan, Mountain View, Calif.; FL-3 channel).

[1] = test system: IRF-1 and IRF-2 in MeWo cells; experiment: Immunoblotting of IRF-1 and IRF-2; format: cell-based, human; conditions: within 4 h
Protocol: Two×10^6 cultured melanoma cell lines were rinsed twice in ice-cold PBS and lysed in 60 μl of lysis buffer [25 mM Tris, 140 mM NaCl, and 1% NP40 (pH 7.5)] containing 5 mM EDTA, 0.2 mM orthovanadate, 10 mM NaF, leupeptin, aprotinin, and phenylmethylsulfonyl fluoride for 10 min on ice. Equal amounts of total protein (measured with DC Protein Assay Reagent; Bio-Rad Labs, Hercules, Calif.) were loaded on a standard 10% SDS polyacrylamide gel, and fractionated proteins were electroblotted onto a nitrocellulose membrane. Nitrocellulose membranes were blocked for 1 h at room temperature using 5% dry milk in 1× PBS and washed three times for 5 min each in PBS containing 0.05% Tween 20 at room temperature. The membranes were incubated overnight at 4° C. in a sealed bag with a 1:2000 dilution of IRF-1 and IRF-2 polyclonal antibodies in 10 ml of 5% dry milk/0.1% Tween 20 in 1× PBS. The membranes were washed three times for 5 min each in PBS containing 0.05% Tween 20, and then incubated with peroxidase-conjugated antirabbit IgG secondary antibody (Transduction Laboratories) at 1:2000 dilution in PBS with 5% dry milk and 0.1 % Tween 20 for 45 min at room temperature. The blots were visualized using an enhanced chemiluminescence detection kit (Amersham, Arlington Heights, Ill.).

HUVEC = experiment: Endothelial cell differentiation (tube formation) assay on Matrigel; format: cell-based, human
Protocol: Endothelial cell differentiation (tube formation) assays were done using the in vitro angiogenesis assay kit (Chemicon, Temecula, Calif.). Briefly, HUVEC and HMVEC were grown to 80% confluency, collected, resuspended in growth medium, and plated at a concentration of 2−10^4 cells/well in a 96-well plate coated with Matrigel (Chemicon, Temecula, Calif.). Cells were treated with sMDA-7 protein (1, 5, 10, and 50 ng/ml), or a preparation immunodepleted of sMDA protein for 24 h at 37° C. Cells treated with PBS served as negative controls in these experiments. The ability of sMDA-7 to inhibit tube formation was determined and quantitated by counting the number of tubes under bright-field microscopy.
For experiments involving comparative studies, cells were treated with equimolar concentrations of sMDA-7 (5, 10, and 300 ng/ml), recombinant human endostatin (5.2, 10.4, and 315 ng/ml; Calbiochem, La Jolla, Calif.), recombinant IFN-γ (4.5, 9, and 268 ng/ml; R&D systems, Minneapolis, Minn.) or recombinant IP-10 (2.4, 4.5, and 134 ng/ml; R&D systems, Minneapolis, Minn.) and analyzed for tube formation assay as described above. All samples were tested in duplicate. Experiments were repeated at least 5-6 times.
For receptor blocking studies, HUVEC grown in six-well plates were pretreated with IL-22R1 blocking antibody (1 ng/ml and 5 ng/ml). Following overnight incubation, cells were harvested, washed, and plated in Matrigel coated 96-well plates. Fresh IL-22R1 blocking antibody and sMDA-7 was added to the wells in a 1:1 ratio (1 ng/ml of IL-22R1 antibody:1 ng/ml of sMDA-7) or 1:5 ratio (1 ng/ml of IL-22R1 antibody:5 ng/ml of sMDA-7) and incubated at 37° C. After overnight incubation, the plates were examined for tube formation. All other experimental procedures were the same as described above. […] The relative amount of IL-22R1 used for experiments involving endostatin was 315 ng/ml (1:1 ratio) and 134 ng/ml for experiments involving IP-10 (1:1 ratio). All other experimental procedures were the same as described previously. For blocking studies using anti-IP-10 or anti-IFN-γ neutralizing antibodies (R & D Systems), experiments were conducted as described above for receptor studies except that HUVEC were treated with the appropriate neutralizing antibody (1 μg and 5 μg/ml) prior to treatment with sMDA-7 (300 ng/ml).

[2] = test system: MiaPaCa2 pancreatic cancer cells; experiment: MDA-7 protein on pancreatic cancer cells: STAT3 activation, killing; format: cell-based, human
Protocol: MiaPaCa2 pancreatic cancer cells were treated with purified recombinant human MDA-7 protein, as described in Example 11. By immunofluorescence, substantial activation (phosphorylation) of STAT3 and concomitant movement of p-STAT3 to the nucleus were observed. The STAT3 activation was blocked in the presence of anti-MDA-7 antibodies.

B1: sMDA-7: soluble secreted human MDA-7 (IL-24) protein purified from stably transfected 293-mda-7 cells (protein)
chain: AQGQEFHFGPCQVKGVVPQKLWEAFWAVKDTMQAQDNITSARLLQQEVLQNVSDAESCYLVHTLLEFYLKTVFKNYHNRTVEVRTLKSFSTLANNFVLIVSQLQPSQENEMFSIRDSAHRRFLLFRRAFKQLDVEAALTKALGEVDILLTWMQKFYKL
Q: With B1 as the molecule, how does the “serum level of circulating sMDA-7 by ELISA” value (A549 tumor xenografts) read?
A: The value was “approximately 50 ng/ml”.

Q: And the “cell growth inhibition or cell death” value (A549 and H1299)?
A: The value was “did not induce cell growth inhibition or cell death”.

Q: What about the “fall in IRF-1 expression” value [1] of the same molecule?
A: The value was ~4 fold.

Q: And the “increase in IRF-2 expression” value [1]?
A: Its value is 4.7 fold.

Q: What about the “inhibitory activity on tube formation in presence of anti-IP-10 or anti-IFN-γ neutralizing antibodies” value (HUVEC) of the same molecule?
A: Its value is “not lost”.

Q: And the tube formation (HUVEC; 5 ng/ml alone)?
A: The tube formation was “completely inhibited”.

Q: And the “formation of capillary tube-like structures” value (HUVEC; HUVEC and HMVEC, 1, 5, 10, 50 ng/ml)?
A: Its value is “significantly inhibited”.

Q: What about the “concentration required to significantly inhibit HUVEC tube formation” value (HUVEC; equimolar comparison) of the same molecule?
A: The value was 10 ng/mL.

Q: And the “killing of MiaPaCa2 cells” value [2]?
A: The value was “dose-dependent killing”.

Q: What about the “time to evident STAT3 activation” value [2] of the same molecule?
A: Its value is ≤ 30 min.
